Publication PMC12416549 (2024)

T1: TNFR1 (Homo sapiens, UniProt P19438)
T1 chain: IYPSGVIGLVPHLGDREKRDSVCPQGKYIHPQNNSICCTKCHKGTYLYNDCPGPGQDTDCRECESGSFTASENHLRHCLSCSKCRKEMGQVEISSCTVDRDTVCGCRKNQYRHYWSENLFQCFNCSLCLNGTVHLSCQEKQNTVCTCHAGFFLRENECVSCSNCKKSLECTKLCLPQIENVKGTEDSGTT


Biological target: T1, TNFR1
Test: yeast display SC50

| apparent Kd (screen) [nM] | Binder |
| --- | --- |
| 1.4 | H24D (designed binder) SMEEEVEKAAKEYEKKKKEAIEKDLEKLKAKDKEAAERFLKELEEAAKEYAKDEAKTMSEEEAKRRAKKYKEKVLLSELSEEEQKEIKEAEEKLVRTILKYVEEAAK |
| 1.16 | L28N (designed binder) SMEEEVEKAAKEYEKKKKEAIEKHLEKNKAKDKEAAERFLKELEEAAKEYAKDEAKTMSEEEAKRRAKKYKEKVLLSELSEEEQKEIKEAEEKLVRTILKYVEEAAK |
| 12.5 | E42F (designed binder) SMEEEVEKAAKEYEKKKKEAIEKHLEKLKAKDKEAAERFLKFLEEAAKEYAKDEAKTMSEEEAKRRAKKYKEKVLLSELSEEEQKEIKEAEEKLVRTILKYVEEAAK |
| 10.4 | Y50G (designed binder) SMEEEVEKAAKEYEKKKKEAIEKHLEKLKAKDKEAAERFLKELEEAAKEGAKDEAKTMSEEEAKRRAKKYKEKVLLSELSEEEQKEIKEAEEKLVRTILKYVEEAAK |
| 7.07 | A67R (designed binder) SMEEEVEKAAKEYEKKKKEAIEKHLEKLKAKDKEAAERFLKELEEAAKEYAKDEAKTMSEEEAKRRRKKYKEKVLLSELSEEEQKEIKEAEEKLVRTILKYVEEAAK |
| 0.446 | A9I (designed binder) SMEEEVEKIAKEYEKKKKEAIEKHLEKLKAKDKEAAERFLKELEEAAKEYAKDEAKTMSEEEAKRRAKKYKEKVLLSELSEEEQKEIKEAEEKLVRTILKYVEEAAK |
| 1.69 | Y13T (designed binder) SMEEEVEKAAKETEKKKKEAIEKHLEKLKAKDKEAAERFLKELEEAAKEYAKDEAKTMSEEEAKRRAKKYKEKVLLSELSEEEQKEIKEAEEKLVRTILKYVEEAAK |
| 0.79 | S1I (designed binder) IMEEEVEKAAKEYEKKKKEAIEKHLEKLKAKDKEAAERFLKELEEAAKEYAKDEAKTMSEEEAKRRAKKYKEKVLLSELSEEEQKEIKEAEEKLVRTILKYVEEAAK |
| 0.446 | E60W (designed binder) SMEEEVEKAAKEYEKKKKEAIEKHLEKLKAKDKEAAERFLKELEEAAKEYAKDEAKTMSWEEAKRRAKKYKEKVLLSELSEEEQKEIKEAEEKLVRTILKYVEEAAK |
| 18.3 | R66V (designed binder) SMEEEVEKAAKEYEKKKKEAIEKHLEKLKAKDKEAAERFLKELEEAAKEYAKDEAKTMSEEEAKRVAKKYKEKVLLSELSEEEQKEIKEAEEKLVRTILKYVEEAAK |
| 0.446 | A51Q (designed binder) SMEEEVEKAAKEYEKKKKEAIEKHLEKLKAKDKEAAERFLKELEEAAKEYQKDEAKTMSEEEAKRRAKKYKEKVLLSELSEEEQKEIKEAEEKLVRTILKYVEEAAK |
| 2.73 | L79A (designed binder) SMEEEVEKAAKEYEKKKKEAIEKHLEKLKAKDKEAAERFLKELEEAAKEYAKDEAKTMSEEEAKRRAKKYKEKVLLSEASEEEQKEIKEAEEKLVRTILKYVEEAAK |
| 0.49 | Y101T (designed binder) SMEEEVEKAAKEYEKKKKEAIEKHLEKLKAKDKEAAERFLKELEEAAKEYAKDEAKTMSEEEAKRRAKKYKEKVLLSELSEEEQKEIKEAEEKLVRTILKTVEEAAK |
| 9.41 | V74F (designed binder) SMEEEVEKAAKEYEKKKKEAIEKHLEKLKAKDKEAAERFLKELEEAAKEYAKDEAKTMSEEEAKRRAKKYKEKFLLSELSEEEQKEIKEAEEKLVRTILKYVEEAAK |
| 12.5 | L99E (designed binder) SMEEEVEKAAKEYEKKKKEAIEKHLEKLKAKDKEAAERFLKELEEAAKEYAKDEAKTMSEEEAKRRAKKYKEKVLLSELSEEEQKEIKEAEEKLVRTIEKYVEEAAK |
| 1.27 | E104C (designed binder) SMEEEVEKAAKEYEKKKKEAIEKHLEKLKAKDKEAAERFLKELEEAAKEYAKDEAKTMSEEEAKRRAKKYKEKVLLSELSEEEQKEIKEAEEKLVRTILKYVECAAK |
| 0.79 | A35S (designed binder) SMEEEVEKAAKEYEKKKKEAIEKHLEKLKAKDKESAERFLKELEEAAKEYAKDEAKTMSEEEAKRRAKKYKEKVLLSELSEEEQKEIKEAEEKLVRTILKYVEEAAK |
| 2.73 | V6N (designed binder) SMEEENEKAAKEYEKKKKEAIEKHLEKLKAKDKEAAERFLKELEEAAKEYAKDEAKTMSEEEAKRRAKKYKEKVLLSELSEEEQKEIKEAEEKLVRTILKYVEEAAK |

| apparent Kd (screen) [nM] | Binder |
| --- | --- |
| 1.27 | E83L (designed binder) SMEEEVEKAAKEYEKKKKEAIEKHLEKLKAKDKEAAERFLKELEEAAKEYAKDEAKTMSEEEAKRRAKKYKEKVLLSELSEELQKEIKEAEEKLVRTILKYVEEAAK |
| 5.84 | I98Y (designed binder) SMEEEVEKAAKEYEKKKKEAIEKHLEKLKAKDKEAAERFLKELEEAAKEYAKDEAKTMSEEEAKRRAKKYKEKVLLSELSEEEQKEIKEAEEKLVRTYLKYVEEAAK |
| 1.27 | E72V (designed binder) SMEEEVEKAAKEYEKKKKEAIEKHLEKLKAKDKEAAERFLKELEEAAKEYAKDEAKTMSEEEAKRRAKKYKVKVLLSELSEEEQKEIKEAEEKLVRTILKYVEEAAK |
| 9.41 | E72K (designed binder) SMEEEVEKAAKEYEKKKKEAIEKHLEKLKAKDKEAAERFLKELEEAAKEYAKDEAKTMSEEEAKRRAKKYKKKVLLSELSEEEQKEIKEAEEKLVRTILKYVEEAAK |
| 0.539 | E4A (designed binder) SMEAEVEKAAKEYEKKKKEAIEKHLEKLKAKDKEAAERFLKELEEAAKEYAKDEAKTMSEEEAKRRAKKYKEKVLLSELSEEEQKEIKEAEEKLVRTILKYVEEAAK |
| 11.4 | S77D (designed binder) SMEEEVEKAAKEYEKKKKEAIEKHLEKLKAKDKEAAERFLKELEEAAKEYAKDEAKTMSEEEAKRRAKKYKEKVLLDELSEEEQKEIKEAEEKLVRTILKYVEEAAK |
| 0.446 | A36P (designed binder) SMEEEVEKAAKEYEKKKKEAIEKHLEKLKAKDKEAPERFLKELEEAAKEYAKDEAKTMSEEEAKRRAKKYKEKVLLSELSEEEQKEIKEAEEKLVRTILKYVEEAAK |
| 0.79 | E82M (designed binder) SMEEEVEKAAKEYEKKKKEAIEKHLEKLKAKDKEAAERFLKELEEAAKEYAKDEAKTMSEEEAKRRAKKYKEKVLLSELSEMEQKEIKEAEEKLVRTILKYVEEAAK |
| 11.4 | I98S (designed binder) SMEEEVEKAAKEYEKKKKEAIEKHLEKLKAKDKEAAERFLKELEEAAKEYAKDEAKTMSEEEAKRRAKKYKEKVLLSELSEEEQKEIKEAEEKLVRTSLKYVEEAAK |
| 1.54 | E86W (designed binder) SMEEEVEKAAKEYEKKKKEAIEKHLEKLKAKDKEAAERFLKELEEAAKEYAKDEAKTMSEEEAKRRAKKYKEKVLLSELSEEEQKWIKEAEEKLVRTILKYVEEAAK |
| 0.593 | K29T (designed binder) SMEEEVEKAAKEYEKKKKEAIEKHLEKLTAKDKEAAERFLKELEEAAKEYAKDEAKTMSEEEAKRRAKKYKEKVLLSELSEEEQKEIKEAEEKLVRTILKYVEEAAK |
| 0.446 | E5Q (designed binder) SMEEQVEKAAKEYEKKKKEAIEKHLEKLKAKDKEAAERFLKELEEAAKEYAKDEAKTMSEEEAKRRAKKYKEKVLLSELSEEEQKEIKEAEEKLVRTILKYVEEAAK |
| 0.446 | T57K (designed binder) SMEEEVEKAAKEYEKKKKEAIEKHLEKLKAKDKEAAERFLKELEEAAKEYAKDEAKKMSEEEAKRRAKKYKEKVLLSELSEEEQKEIKEAEEKLVRTILKYVEEAAK |
| 0.49 | K29D (designed binder) SMEEEVEKAAKEYEKKKKEAIEKHLEKLDAKDKEAAERFLKELEEAAKEYAKDEAKTMSEEEAKRRAKKYKEKVLLSELSEEEQKEIKEAEEKLVRTILKYVEEAAK |
| 1.4 | V102C (designed binder) SMEEEVEKAAKEYEKKKKEAIEKHLEKLKAKDKEAAERFLKELEEAAKEYAKDEAKTMSEEEAKRRAKKYKEKVLLSELSEEEQKEIKEAEEKLVRTILKYCEEAAK |
| 13.8 | V95F (designed binder) SMEEEVEKAAKEYEKKKKEAIEKHLEKLKAKDKEAAERFLKELEEAAKEYAKDEAKTMSEEEAKRRAKKYKEKVLLSELSEEEQKEIKEAEEKLFRTILKYVEEAAK |
| 0.539 | K85I (designed binder) SMEEEVEKAAKEYEKKKKEAIEKHLEKLKAKDKEAAERFLKELEEAAKEYAKDEAKTMSEEEAKRRAKKYKEKVLLSELSEEEQIEIKEAEEKLVRTILKYVEEAAK |
